Test results reported in patent US20120219559A1 (Johns Hopkins, published 2012).

B1: human B7-H2Ig fusion protein (Fc fusion)
chain: DTQEKEVRAMVGSDVELSCACPEGSRFDLNDVYVYWQTSESKTVVTYHIPQNSSLENVDSRYRNRALMSPAGMLRGDFSLRLFNVTPQDEQKFHCLVLSQSLGFQEVLSVEVTLHVAANFSVPVVSAPHSPSQDELTFTCTSINGYPRPNVYWINKTDNSLLDQALQNDTVFLNMRGLYDVVSVLRIARTPSVNIGCCIENVLLQQNLTVGSQTGNDIGERDKITENPVSTGEKNAATWS
notes: Ig (Fc) part not given
B2: ICOS (receptor, Mus musculus, UniProt Q9WVS0 21-200, looked up)
membrane protein: EINGSADHRMFSFHNGGVQISCKYPETVQQLKMRLFREREVLCELTKTKGSGNAVSIKNPMLCLYHLSNNSVSFFLNNPDSSQGSYYFCSLSIFDPPPFQERNLSGGYLHIYESQLCCQLKLWLPVGCAAFVVVLLFGCILIIWFSKKKYGSSVHDPNSEYMFMAAVNTNKKSRLAGVTS
B3: ICOSIg (Fc fusion, Mus musculus, UniProt Q9WVS0 21-144, looked up)
fusion protein: EINGSADHRMFSFHNGGVQISCKYPETVQQLKMRLFREREVLCELTKTKGSGNAVSIKNPMLCLYHLSNNSVSFFLNNPDSSQGSYYFCSLSIFDPPPFQERNLSGGYLHIYESQLCCQLKLWL
notes: Ig fusion protein purchased from R&D systems; also called mouse ICOSIg fusion protein
B4: B7-DCIg (Fc fusion, Mus musculus, UniProt Q9WUL5 20-219, looked up)
fusion protein: LFTVTAPKEVYTVDVGSSVSLECDFDRRECTELEGIRASLQKVENDTSLQSERATLLEEQLPLGKALFHIPSVQVRDSGQYRCLVICGAAWDYKYLTVKVKASYMRIDTRILEVPGTGEVQLTCQARGYPLAEVSWQNVSVPANTSHIRTPEGLYQVTSVLRLKPQPSRNFSCMFWNAHMKELTSAIIDPLSRMEPKVPR
notes: Ig fusion protein purchased from R&D systems; also called mouse B7-DCIg fusion protein
B5: PD-1Ig (Fc fusion, Mus musculus, UniProt Q02242 25-167, looked up)
fusion protein: LEVPNGPWRSLTFYPAWLTVSEGANATFTCSLSNWSEDLMLNWNRLSPSNQTEKQAAFCNGLSQPVQDARFQIIQLPNRHDFHMNILDTRRNDSGIYLCGAISLHPKAKIEESPGAELVVTERILETSTRYPSPSPKPEGRFQ
notes: Ig fusion protein purchased from R&D systems; also called mouse PD-1Ig fusion protein
B6: human B7-1Ig fusion protein (Fc fusion, UniProt P33681 35-242, looked up)
chain: VIHVTKEVKEVATLSCGHNVSVEELAQTRIYWQKEKKMVLTMMSGDMNIWPEYKNRTIFDITNNLSIVILALRPSDEGTYECVVLKYEKDAFKREHLAEVTLSVKADFPTPSISDFEIPTSNIRRIICSTSGGFPEPHLSWLENGEELNAINTTVSQDPETELYAVSSKLDFNMTTNHSFMCLIKYGHLRVNQTFNWNTTKQEHFPDN
notes: Bought from R&D Systems; Ig (Fc) part not given
B7: B7-H2Ig (Fc fusion, Mus musculus, UniProt Q9JHJ8 47-279, looked up)
fusion protein: ETEVGAMVGSNVVLSCIDPHRRHFNLSGLYVYWQIENPEVSVTYYLPYKSPGINVDSSYKNRGHLSLDSMKQGNFSLYLKNVTPQDTQEFTCRVFMNTATELVKILEEVVRLRVAANFSTPVISTSDSSNPGQERTYTCMSKNGYPEPNLYWINTTDNSLIDTALQNNTVYLNKLGLYDVISTLRLPWTSRGDVLCCVENVALHQNITSISQAESFTGNNTKNPQETHNNELK
notes: Ig fusion protein purchased from R&D systems; also called mouse B7-H2Ig fusion protein

Tests used:
[1] = target: T1, human B7-H1 expressed on 293T cells (human, UniProt Q9NZQ7 19-290); test: CDS well image, 293T cells transfected with the human gene, stained with the human fusion protein
T1 construct: whole, on cells
T1 sequence (Q9NZQ7 19-290): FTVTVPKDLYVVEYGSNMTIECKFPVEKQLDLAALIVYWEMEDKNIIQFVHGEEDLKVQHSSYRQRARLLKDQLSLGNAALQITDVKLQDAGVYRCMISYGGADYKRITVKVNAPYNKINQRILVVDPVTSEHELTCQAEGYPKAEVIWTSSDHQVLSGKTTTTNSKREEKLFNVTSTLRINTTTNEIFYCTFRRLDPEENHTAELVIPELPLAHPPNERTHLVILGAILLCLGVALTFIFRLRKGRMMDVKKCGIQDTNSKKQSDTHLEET

[2] = target: T2, human B7-DC expressed on 293T cells (human, UniProt Q9BQ51 20-273); test: as above
T2 construct: whole, on cells
T2 sequence (looked up): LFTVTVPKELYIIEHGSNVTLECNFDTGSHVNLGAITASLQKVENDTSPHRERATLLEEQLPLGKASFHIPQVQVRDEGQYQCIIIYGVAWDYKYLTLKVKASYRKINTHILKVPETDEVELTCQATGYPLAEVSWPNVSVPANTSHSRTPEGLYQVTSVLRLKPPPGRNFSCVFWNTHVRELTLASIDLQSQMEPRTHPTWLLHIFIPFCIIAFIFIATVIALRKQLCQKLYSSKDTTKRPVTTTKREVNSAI

[3] = target: T3, human B7-2 (CD86, B70) expressed on 293T cells (human, UniProt P42081 24-329); test: as above
T3 construct: whole, on cells
T3 sequence (looked up): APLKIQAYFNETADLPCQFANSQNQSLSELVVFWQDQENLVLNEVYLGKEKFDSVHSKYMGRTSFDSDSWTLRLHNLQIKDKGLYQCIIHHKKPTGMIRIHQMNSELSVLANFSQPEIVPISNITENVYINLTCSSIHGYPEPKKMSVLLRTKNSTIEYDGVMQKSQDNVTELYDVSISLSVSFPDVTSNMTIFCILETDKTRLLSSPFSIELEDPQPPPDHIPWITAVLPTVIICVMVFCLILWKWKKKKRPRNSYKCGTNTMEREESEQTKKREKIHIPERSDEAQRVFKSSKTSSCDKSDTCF

[4] = target: T4, human B7-H2, full length, expressed on cells (B7-H2+293T cells) (human, UniProt O75144 19-302); test: as above
T4 construct: This id also stands for endogenous B7-H2 on monocyte-derived dendritic cells in the functional rows; also called ICOSL; ICOSLG
T4 sequence: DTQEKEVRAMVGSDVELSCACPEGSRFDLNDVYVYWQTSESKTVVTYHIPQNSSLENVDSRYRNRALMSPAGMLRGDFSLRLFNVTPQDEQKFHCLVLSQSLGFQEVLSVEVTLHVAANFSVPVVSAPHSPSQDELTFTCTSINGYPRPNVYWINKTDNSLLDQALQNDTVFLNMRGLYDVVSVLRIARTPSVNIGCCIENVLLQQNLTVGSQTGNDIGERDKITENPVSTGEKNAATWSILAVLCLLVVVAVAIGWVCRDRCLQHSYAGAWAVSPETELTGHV

[5] = target: T5, human B7-1 (CD80) expressed on 293T cells (human, UniProt P33681 35-288); test: as above
T5 construct: whole, on cells
T5 sequence (looked up): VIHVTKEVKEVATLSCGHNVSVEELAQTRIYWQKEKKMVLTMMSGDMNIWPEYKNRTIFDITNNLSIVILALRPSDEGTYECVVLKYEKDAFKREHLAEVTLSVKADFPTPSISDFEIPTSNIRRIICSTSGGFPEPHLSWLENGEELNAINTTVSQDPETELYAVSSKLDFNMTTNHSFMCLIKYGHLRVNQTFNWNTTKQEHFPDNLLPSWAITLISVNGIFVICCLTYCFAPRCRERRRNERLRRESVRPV

B7-H1Ig = target: T6, B7-H1Ig (Mus musculus, UniProt Q9EP73); test: CDS well image, 293T cells transfected with the mouse gene, stained with the mouse fusion protein
T6 construct: Ig fusion protein purchased from R&D systems; also called mouse B7-H1Ig fusion protein
T6 sequence (Q9EP73 19-238 limits assumed): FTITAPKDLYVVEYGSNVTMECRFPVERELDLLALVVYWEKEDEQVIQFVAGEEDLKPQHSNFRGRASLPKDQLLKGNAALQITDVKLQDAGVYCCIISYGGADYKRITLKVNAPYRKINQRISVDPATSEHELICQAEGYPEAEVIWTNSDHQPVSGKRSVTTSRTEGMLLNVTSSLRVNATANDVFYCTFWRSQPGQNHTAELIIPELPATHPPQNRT

B7-DCIg = target: B4; test: as above
ICOS = target: B2; test: as above
CTLA-4 = CTLA-4 (Mus musculus, UniProt P09793); test: as above
B7-H1 = B7-H1 (Mus musculus, UniProt Q9EP73); test: as above
Sequence of B7-H1 (Q9EP73 19-290 limits assumed): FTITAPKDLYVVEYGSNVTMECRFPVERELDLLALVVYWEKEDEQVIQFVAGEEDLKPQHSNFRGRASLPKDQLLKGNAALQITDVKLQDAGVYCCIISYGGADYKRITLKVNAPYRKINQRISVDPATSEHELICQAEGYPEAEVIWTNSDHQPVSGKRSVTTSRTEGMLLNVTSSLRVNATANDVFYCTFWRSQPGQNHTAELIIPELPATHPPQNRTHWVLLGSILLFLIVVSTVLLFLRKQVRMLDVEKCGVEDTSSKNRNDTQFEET

CD28 = target: T7, CD28 (Mus musculus, UniProt P31041); test: as above
T7 sequence (membrane protein, looked up): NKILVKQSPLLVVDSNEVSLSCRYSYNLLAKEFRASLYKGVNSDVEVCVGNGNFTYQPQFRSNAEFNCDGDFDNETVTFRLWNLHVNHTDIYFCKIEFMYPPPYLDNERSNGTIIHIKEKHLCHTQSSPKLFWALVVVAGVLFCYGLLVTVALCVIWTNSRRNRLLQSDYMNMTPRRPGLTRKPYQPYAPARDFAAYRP

[6] = target: T8, mouse B7-H2, full length, expressed on 293T cells (mouse, UniProt Q9JHJ8 44-322); test: as above
T8 construct: whole, on cells
T8 sequence (looked up): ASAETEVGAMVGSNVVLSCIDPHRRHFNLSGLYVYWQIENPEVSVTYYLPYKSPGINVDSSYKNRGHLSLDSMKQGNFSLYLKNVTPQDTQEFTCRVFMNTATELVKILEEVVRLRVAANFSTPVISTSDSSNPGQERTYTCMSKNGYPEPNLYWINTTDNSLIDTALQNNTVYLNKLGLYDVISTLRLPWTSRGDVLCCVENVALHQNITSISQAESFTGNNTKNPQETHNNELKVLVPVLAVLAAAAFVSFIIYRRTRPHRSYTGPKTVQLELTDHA

PD-1 = target: T9, PD-1 (Mus musculus, UniProt Q02242); test: as above
T9 sequence (membrane protein, looked up): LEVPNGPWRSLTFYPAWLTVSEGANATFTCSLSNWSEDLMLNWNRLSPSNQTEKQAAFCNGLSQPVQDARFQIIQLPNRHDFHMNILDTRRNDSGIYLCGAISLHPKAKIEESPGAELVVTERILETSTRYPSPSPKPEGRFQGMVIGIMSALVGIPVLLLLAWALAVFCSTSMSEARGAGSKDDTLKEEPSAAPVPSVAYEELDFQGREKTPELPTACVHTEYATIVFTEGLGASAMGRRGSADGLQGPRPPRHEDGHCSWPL

B7-DC = target: T10, B7-DC (Mus musculus, UniProt Q9WUL5); test: as above
T10 sequence (membrane protein, looked up): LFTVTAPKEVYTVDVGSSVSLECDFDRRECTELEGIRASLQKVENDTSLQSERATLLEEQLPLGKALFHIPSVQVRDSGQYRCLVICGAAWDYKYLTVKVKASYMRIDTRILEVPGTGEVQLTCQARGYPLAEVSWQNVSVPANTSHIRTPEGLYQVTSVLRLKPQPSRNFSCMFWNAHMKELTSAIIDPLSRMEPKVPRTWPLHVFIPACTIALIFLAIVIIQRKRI

Measured: binding result

B1
no binding: [1] | [2] | [3] | [4] | [5]

B2
no binding: B7-H1Ig | B7-DCIg

B3
binds: [6]
no binding: ICOS | CTLA-4 | B7-H1 | CD28 | PD-1 | B7-DC

B4
no binding: B7-H1 | [6] | B7-DC
binds: PD-1

B5
no binding: ICOS | CTLA-4 | CD28 | [6] | PD-1
binds: B7-H1 | B7-DC

B6
no binding: [2] | [3] | [4] | [5]

B7
no binding: B7-H1 | [6] | PD-1
